In PMC4923861:
One block for each substance: values may come before it.

Key:
[1] = target: CKK domain of mouse CAMSAP3/Marshalin-Ld (CKK1 or CKK2, not told for this experiment) (UniProt Q80VC9); experiment: GST pull-down; details: n = 4; parent: est. 1.0; read off a plot
[2] = target: CAMSAP3/Marshalin-Ld, V5-His tagged (mouse) (UniProt Q80VC9)
[3] = target: CKK1, CKK domain construct of mouse CAMSAP3/Marshalin-Ld (residues 1020–1253) (mouse)

- response (relative intensity) [1]: 0.65
Substance: GST-CDH23-C_1–67 (first 67 residues of mouse CDH23-C; CKK binding motif, CBM) R55H

- decrease of the percent of OK cells with type III (long strings) CAMSAP3/Marshalin-Ld pattern on co-expression of CDH23-C1-GFP, against GFP (54.1% type III), 24 hours after co-transfection [2]: 21.3%
- percent of OK cells with CKK1-induced MT bundles, CKK1 (V5-His) co-expressed with CDH23-C1-GFP, 44 to 68 hours after transfection (19.9% with GFP) [3]: 5.5%
Substance: GST-tagged CDH23-C1 (mouse cadherin 23, C isoform, subtype 1) (natural protein)

- decrease of the percent of OK cells with type III (long strings) CAMSAP3/Marshalin-Ld pattern on co-expression of CDH23-C2-GFP, against GFP (54.1% type III), 24 hours after co-transfection [2]: 20%
Substance: GST-tagged CDH23-C2 (mouse cadherin 23, C isoform, subtype 2) (natural protein)
